# From patent US20030129189A1, “Tumor necrosis factor-gamma” (priority 1994, published 2003)
# T1: Fc-fusion form of the extracellular domain of DR6 (UniProt O75509 42-349, limits assumed)
# T1 construct: extracellular domain; not shown: Fc part of the fusion
# T1 sequence (looked up): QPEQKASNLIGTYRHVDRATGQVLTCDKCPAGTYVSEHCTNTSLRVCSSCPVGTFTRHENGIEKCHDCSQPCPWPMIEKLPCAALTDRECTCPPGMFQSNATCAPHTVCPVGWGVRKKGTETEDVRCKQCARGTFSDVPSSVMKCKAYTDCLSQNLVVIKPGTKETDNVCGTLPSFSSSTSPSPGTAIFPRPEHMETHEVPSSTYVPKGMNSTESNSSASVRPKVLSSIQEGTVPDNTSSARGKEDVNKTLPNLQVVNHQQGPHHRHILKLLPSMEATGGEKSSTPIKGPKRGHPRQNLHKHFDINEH
# T2: Fc-fusion form of the extracellular domain of OPG (UniProt O00300 22-401, limits assumed)
# T2 construct: extracellular domain; not shown: Fc part of the fusion
# T2 sequence (looked up): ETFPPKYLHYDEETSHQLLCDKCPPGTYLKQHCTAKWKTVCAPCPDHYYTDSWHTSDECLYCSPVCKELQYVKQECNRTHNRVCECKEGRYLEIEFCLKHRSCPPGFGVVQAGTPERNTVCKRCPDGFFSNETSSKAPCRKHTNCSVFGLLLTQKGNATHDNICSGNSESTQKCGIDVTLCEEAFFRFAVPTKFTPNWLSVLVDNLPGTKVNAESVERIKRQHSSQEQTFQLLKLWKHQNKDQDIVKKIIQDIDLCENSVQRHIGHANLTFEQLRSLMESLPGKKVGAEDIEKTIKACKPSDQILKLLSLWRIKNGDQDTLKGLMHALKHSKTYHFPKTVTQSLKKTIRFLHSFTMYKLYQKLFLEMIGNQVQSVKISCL
# T3: non-tagged form of TR6 (UniProt O95407 30-300)
# T3 construct: also called DcR3
# T3 sequence (looked up): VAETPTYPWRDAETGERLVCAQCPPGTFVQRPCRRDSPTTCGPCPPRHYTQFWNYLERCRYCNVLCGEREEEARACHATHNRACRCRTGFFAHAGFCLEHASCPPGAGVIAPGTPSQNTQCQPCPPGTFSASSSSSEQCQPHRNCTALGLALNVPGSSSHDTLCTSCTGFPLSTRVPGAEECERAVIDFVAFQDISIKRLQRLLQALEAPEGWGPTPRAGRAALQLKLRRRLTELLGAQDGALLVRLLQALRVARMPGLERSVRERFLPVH
# T4: FLAG-tagged soluble TNF-gamma-beta (aa 72-251) (human, UniProt O95150 72-251)
# T4 construct: also called FLAG-TL1β; FLAG-TNF-gamma-beta; not shown: The N-terminal FLAG tag (pFLAG-CMV-1 vector) and any vector linker
# T4 sequence: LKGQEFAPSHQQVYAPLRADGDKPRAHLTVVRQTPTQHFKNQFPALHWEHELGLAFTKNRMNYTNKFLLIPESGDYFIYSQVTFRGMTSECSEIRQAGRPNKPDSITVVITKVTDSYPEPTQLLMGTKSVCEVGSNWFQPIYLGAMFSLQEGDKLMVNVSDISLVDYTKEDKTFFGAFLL
# T5: recombinant, untagged TNF-gamma-beta protein (aa 72-251) (human, UniProt O95150 72-251)
# T5 construct: they are put here; also called TL1β; non-tagged TNF-gamma-beta
# T5 sequence: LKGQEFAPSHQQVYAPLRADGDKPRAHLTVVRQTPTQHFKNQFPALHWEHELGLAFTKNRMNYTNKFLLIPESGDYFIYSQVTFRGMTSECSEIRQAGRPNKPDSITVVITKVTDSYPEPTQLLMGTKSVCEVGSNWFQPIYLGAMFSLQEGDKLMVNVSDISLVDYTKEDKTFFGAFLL
# B1: full length TNF-gamma-beta on the cell surface (HEK293F stable transfectants; transfected cells) (ligand)
# chain: MAEDLGLSFGETASVEMLPEHGSCRPKARSSSARWALTCCLVLLPFLAGLTTYLLVSQLRAQGEACVQFQALKGQEFAPSHQQVYAPLRADGDKPRAHLTVVRQTPTQHFKNQFPALHWEHELGLAFTKNRMNYTNKFLLIPESGDYFIYSQVTFRGMTSECSEIRQAGRPNKPDSITVVITKVTDSYPEPTQLLMGTKSVCEVGSNWFQPIYLGAMFSLQEGDKLMVNVSDISLVDYTKEDKTFFGAFLL
# notes: also called TNF-gamma-beta expressing cells
# B2: soluble DR3: extracellular domain of DR3 locally produced by transfected MCA 38 cells (protein, UniProt Q93038 25-199, looked up)
# extracellular domain: QGGTRSPRCDCAGDFHKKIGLFCCRGCPAGHYLKAPCTEPCGNSTCLVCPQDTFLAWENHHNSECARCQACDEQASQVALENCSAVADTRCGCKPGWFVECQVSQCVSSSPFYCQPCLDCGALHRHTRLLCSRRDTDCGTCLPGFYEHGDGCVSCPTSTLGSCPERCAAVCGWRQ
# modifications: extracellular domain
# notes: extracellular domain of DR3 locally produced by transfected MCA 38 cells
# B3: TACI-Fc (extracellular domain of human TACI, aa 1-159, fused to the Fc domain of human IgG1) (Fc fusion, UniProt O14836 1-159, looked up)
# chain: MSGLGRSRRGGRSRVDQEERFPQGLWTGVAMRSCPEEQYWDPLLGTCMSCKTICNHQSQRTCAAFCRSLSCRKEQGKFYDHLLRDCISCASICGQHPKQCAYFCENKLRSPVNLPPELRRQRSGEVENNSDNSGRYQGLEHRGSEASPALPGLKLSADQ
# notes: range 1-159; also called TAC1; not shown: Fc domain of human IgG1, fused in-frame to the C-terminus of the receptor part
# B4: BCMA-Fc (Fc fusion, human, UniProt Q02223 1-54, looked up)
# chain: MLQMAGQCSQNEYFDSLLHACIPCQLRCSSNTPPLTCQRYCNASVTNSVKGTNA
# notes: Control surface of the BIAcore analysis; not shown: Fc part of the fusion; not described for this receptor
# Key:
# [1] = target: T1, Fc-fusion form of the extracellular …; assay: flow cytometry on HEK293F cells expressing full length TNF-gamma-beta
# Procedure: (§1) TR6 has been previously described as a decoy receptor (Pitti et al., Nature 396:699-703 (1998); Yu et al., J. Biol. Chem. 274:13733-6 (1999)) capable of competing with Fas and HveA for binding of FasL and LIGHT, respectively.
# (§2) One million cells, in 0.1 ml of FACS buffer (PBS, 0.1% BSA, 0.1% NaN₃), were incubated with 0.1-1 microgram of protein or antibody at RT for 15 min. The cells were washed with 3 ml of FACS buffer, reacted with biotinylated primary antibody, and stained with PE-conjugated secondary antibody at RT for 15 min. Cells were then washed again, resuspended in 0.5 microgram/ml of propidium iodide, and live cells were gated and analyzed on a FACScan using the CellQuest software (BD Biosciences).
# [2] = target: T2, Fc-fusion form of the extracellular …; assay: as above
# Procedure: as §1, §2
# non-tagged form of TR6 = target: T3, non-tagged form of TR6; assay: competition flow cytometry on HEK293F cells expressing TNF-gamma-beta; competitor of DR3-Fc
# Procedure: as §1, §2
# [3] = test system: MC-38 murine colon cancer; assay: In vivo tumorigenicity assay, syngeneic MC-38 colon cancer; set-up: species or system C57BL6/6 mice; settings: local production by transfected MCA 38 cells, 1×10^6 cells/mouse
# Procedure: [The full-length TNF-gamma and extracellular domain of DR3 was cloned into pcDNA3 expression vector and transfected to MCA 38 cells, respectively. After selection and cloning, three clones from each constructs were picked for tumorigenicity study. MCA 38 cells (1×10^6 cells/mouse) expressing TNF-gamma or DR3 extracellular domain were injected into C57BL6/6 mice. The tumor size was assessed by measuring perpendicular diameters with a caliper and calculated by multiplying the measurements of diameters in two dimensions. Data are represented as the mean +/−SD of 6 mice in each group.] It is clear that most immune cells and cancer cells can express more than one TNF receptor (even more than one death receptor) and ligand superfamily member. […] Moreover, the expression of these ligands and receptors may differ at the level of individual cell types within tissues and the expression level on the same cell type may also differ.
# The full length TNF-gamma and extracellular domain of DR3 was cloned into pcDNA3 expression vector (Invitrogen, Carlsbad, Calif.) and transfected to MCA 38 cells, respectively. […] Mice then were randomized and tumors were measured twice weekly. The tumor size was assessed by measuring perpendicular diameters with a caliper and calculated by multiplying the measurements of diameters in two dimensions. […]
# [4] = target: B1; assay: flow cytometry on HEK293F cells expressing full length TNF-gamma-beta
# Procedure: as §1, §2
# [5] = target: T4, FLAG-tagged soluble TNF-gamma-beta (aa …); assay: co-immunoprecipitation with protein A-Sepharose, anti-Flag M2 blot
# Excerpt: The beads were then precipitated and washed extensively with PBST buffer (PBS, 0.5% Triton X-100) before boiled in SDS-sample buffer. Proteins were resolved on 4-20% Tris-Glycine gels (NOVEX), transferred to nitrocellulose membranes, and blotted with anti-Flag M2 monoclonal antibody (1 microgram/ml, Sigma) andhorseradish peroxidase (HRP)-conjugated goat anti-mouse IgG antibody (0.5 microgram/ml).
# [6] = target: T5, recombinant, untagged TNF-gamma-beta …; assay: BIAcore 3000, TNFR-Fc immobilised on CM5 chip, TNF-gamma-beta in flow
# Procedure: TNFR-Fc were covalently immobilized to the BIAcore sensor chip (CM5 chip) via amine groups using N-ethyl-N′-(dimethylaminopropyl) carbodiimide/N-hydroxysuccinimide chemistry. […] The amount of bound protein was determined during washing of the flow cell with HBS buffer (10 mM HEPES, pH 7.4, 150 mM NaCl, 3.4 mM EDTA, 0.005% Surfactant P20). The flow cell surface was regenerated by displacing bound protein by washing with 20 microliters of 10 mM glycine-HCl, pH 2.3. For kinetic analysis, the on and off rates were determined using the kinetic evaluation program in BIAevaluation 3 software using a 1:1 binding model and the global analysis method.
molecule,measurement,setting,value
B1,binding result,[1],no binding
same,binding result,[2],no binding
same,binding result,non-tagged form of TR6,binds
B2,tumor growth,[3],promotes tumor growth
B3,binding result,[4],no binding
same,binding result,[5],no binding
B4,binding result,[6],no binding (tested: 3-370 nM)
